In article PMC12846830 (Proceedings of the National Academy of Sciences of the …, 2026):

Molecular target: the molecule itself
Assay: single-molecule photobleaching step analysis

B1: EmrE, a multidrug transporter from Escherichia coli, with a tetracysteine tag (TC-Tag) (natural protein)
chain: MNPYIYLGGAILAEVIGTTLMKFSEGFTRLWPSVGTIICYCASFWLLAQTLAYIPTGIAYAIWSGVGIVLISLLSWGFFGQRLDLPAIIGMMLICAGVLIINLLSRSTPH
modifications: FlAsH dye covalently bound to the tetracysteine tag
Q: How did the “stoichiometry N” value turn out when B1 was run?
A: 2
